PMC10235082

Assays:
human FcRn (human) = human FcRn (human) (UniProt P55899); assay: SPR; Biacore T200; FcRn immobilised on CM5 sensor chip, IVIG (from 500 nM) or rhIgG1 Fc (from 250 nM) injected, two-fold serial dilution; regeneration 100 mM Tris-HCl; multicycle kinetics model (methods), steady state equilibrium model (legend of Fig. 4)
human FcγRIA (human) = human FcγRIA (human) (UniProt P12314); assay: SPR; Biacore T200; FcγRs immobilised on CM5 sensor chip, IVIG or rhIgG1 Fc injected; three-fold serial dilution (FcγRIA from 300 nM; FcγRIIA from 20 μM; FcγRIIIA from 3 μM IVIG and 300 nM hIgG1 Fc); regeneration 10 mM glycine; single cycle kinetics model
[1] = biological target: human FcγRIIIA F176V (human) (UniProt P08637); assay: as above
Sequence of UniProt P08637 (P08637 17-208 F176V): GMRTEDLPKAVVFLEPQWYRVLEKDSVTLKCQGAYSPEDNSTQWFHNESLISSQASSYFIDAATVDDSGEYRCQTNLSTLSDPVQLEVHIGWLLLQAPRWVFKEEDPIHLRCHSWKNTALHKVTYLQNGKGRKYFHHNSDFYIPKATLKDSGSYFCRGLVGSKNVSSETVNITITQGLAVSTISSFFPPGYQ

Sequence of UniProt P12314 (P12314 16-292): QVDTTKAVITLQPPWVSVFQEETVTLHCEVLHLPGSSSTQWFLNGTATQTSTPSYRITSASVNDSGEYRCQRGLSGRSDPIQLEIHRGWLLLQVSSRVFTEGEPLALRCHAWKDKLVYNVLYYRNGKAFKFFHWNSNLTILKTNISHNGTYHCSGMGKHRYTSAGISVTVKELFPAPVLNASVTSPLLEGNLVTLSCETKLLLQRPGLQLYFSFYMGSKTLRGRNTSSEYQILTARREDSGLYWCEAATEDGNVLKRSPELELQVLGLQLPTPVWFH

Kd (human FcRn (human)): 9.09 nM | Kd (human FcγRIA (human)): 1.28 nM | Kd [1]: 9.98 nM
Substance: recombinant human IgG1 Fc derived from ALB::hIgG1 Fc genome-edited chickens (domain or fragment)
